Here are results for 8 molecules from patent US20240287172A1 (SCIRHOM, published 2024).

Bounds are passed on as bounds.

One assay concerns the target T1, hiR2-FL-L539A-T7 (human, UniProt Q6PJF5 1-856).
T1 construct: on MEF-DKO cells
T1 sequence: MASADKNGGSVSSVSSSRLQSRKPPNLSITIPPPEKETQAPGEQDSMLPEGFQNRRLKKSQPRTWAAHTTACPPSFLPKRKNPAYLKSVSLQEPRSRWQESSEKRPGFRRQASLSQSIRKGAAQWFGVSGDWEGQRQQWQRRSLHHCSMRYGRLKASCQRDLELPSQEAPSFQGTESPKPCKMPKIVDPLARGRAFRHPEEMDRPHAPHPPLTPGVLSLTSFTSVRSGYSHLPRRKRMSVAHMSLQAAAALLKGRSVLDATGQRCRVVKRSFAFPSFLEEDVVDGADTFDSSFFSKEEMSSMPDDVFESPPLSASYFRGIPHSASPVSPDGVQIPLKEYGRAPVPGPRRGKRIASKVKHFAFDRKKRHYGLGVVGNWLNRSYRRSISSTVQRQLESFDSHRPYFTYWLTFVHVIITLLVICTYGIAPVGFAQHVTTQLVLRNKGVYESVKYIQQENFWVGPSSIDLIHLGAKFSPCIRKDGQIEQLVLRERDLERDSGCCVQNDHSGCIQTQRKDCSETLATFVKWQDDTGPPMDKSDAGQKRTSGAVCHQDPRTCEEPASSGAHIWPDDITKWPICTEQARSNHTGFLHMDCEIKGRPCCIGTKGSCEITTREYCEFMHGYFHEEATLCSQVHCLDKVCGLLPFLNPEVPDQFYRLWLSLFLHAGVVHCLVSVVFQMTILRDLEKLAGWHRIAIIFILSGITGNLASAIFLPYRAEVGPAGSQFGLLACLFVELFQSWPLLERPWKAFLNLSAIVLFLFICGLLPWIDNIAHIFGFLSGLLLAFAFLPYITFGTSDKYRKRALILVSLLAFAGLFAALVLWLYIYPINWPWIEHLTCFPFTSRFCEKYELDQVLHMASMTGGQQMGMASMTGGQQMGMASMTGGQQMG
Description: FACS on MEF-DKO cells expressing the variant, 3 µg/ml antibody. In short, it runs like this: (§1)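 Cells were stained with purified antibody at 3 μg/ml in FACS buffer for 1 hour on ice, with buffer-only controls. Bound antibody was detected with PE-conjugated goat anti-mouse IgG F(ab′)2 at 1:100, 1 hour on ice in the dark, followed by flow cytometry.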

The next assay has as its target T2, hiR2-FL-D535A-T7 (human, UniProt Q6PJF5 1-856).
T2 sequence: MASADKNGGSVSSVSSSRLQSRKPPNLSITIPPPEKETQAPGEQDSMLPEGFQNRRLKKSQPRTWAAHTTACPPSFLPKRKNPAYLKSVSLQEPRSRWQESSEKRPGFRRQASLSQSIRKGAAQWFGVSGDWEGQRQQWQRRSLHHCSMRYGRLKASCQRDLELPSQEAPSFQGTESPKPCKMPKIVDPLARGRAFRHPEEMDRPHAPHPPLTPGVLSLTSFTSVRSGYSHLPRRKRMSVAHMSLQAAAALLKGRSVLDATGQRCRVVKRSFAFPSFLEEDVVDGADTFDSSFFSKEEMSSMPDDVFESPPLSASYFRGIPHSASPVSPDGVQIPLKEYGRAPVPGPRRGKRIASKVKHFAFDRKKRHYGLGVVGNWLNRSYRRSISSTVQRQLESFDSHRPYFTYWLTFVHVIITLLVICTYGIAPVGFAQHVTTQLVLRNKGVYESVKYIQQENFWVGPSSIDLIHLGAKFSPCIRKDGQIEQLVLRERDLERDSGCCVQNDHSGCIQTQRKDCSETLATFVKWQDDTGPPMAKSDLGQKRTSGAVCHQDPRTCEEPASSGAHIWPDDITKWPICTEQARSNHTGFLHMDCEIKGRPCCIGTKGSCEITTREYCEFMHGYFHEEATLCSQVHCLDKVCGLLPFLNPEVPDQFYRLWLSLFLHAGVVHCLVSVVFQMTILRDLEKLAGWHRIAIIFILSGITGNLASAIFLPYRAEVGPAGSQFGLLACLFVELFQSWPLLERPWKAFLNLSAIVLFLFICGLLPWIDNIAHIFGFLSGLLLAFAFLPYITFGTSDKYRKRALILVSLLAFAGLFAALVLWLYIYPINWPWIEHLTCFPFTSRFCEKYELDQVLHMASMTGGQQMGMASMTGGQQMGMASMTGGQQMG
Described as above. In a few lines: as §1

B1: antibody 50 (antibody, V domains shown)
VH: QVQLQQSGAELVRPGASVKVSCKASGYAFSNYLIEWVKQRPGQGLEWIGVINPGSGFTKYNEKFKGKATLTADKSSSTAYMQLSSLTSEDSAVYFCARGLYRAMDYWGQGTSVTVSS
VL: DIQMTQSPASQSASLGESVTITCLASQTIGTWLAWYQQKPGKSPQLLIYAAASLADGVPSRFSGGGSGTKFSFKISSLQAEDFVNYYCQQIYSTPYTFGGGTKLEIK
notes: mouse IgG, kappa light chain; also called clone #50; purified antibody 50
B1: in the assay with hiR2-FL-L539A-T7, the “loss of binding vs wild type” value was ≥ 30%.

B2: antibody 5 (antibody, V domains shown)
VH: QVTLKESGPGILQPSQTLSLTCSFSGFSLSTFGMGVGWIRQPSGKGLEWLAHIWWDDEKYYNSALKSRLTISKATSKNQAFLKIANVDTADTATYYCARISNYGSNYWYFNVWGTGTTVTVSS
VL: QVVLTQSPALMSASPGEKVTMTCSAGSSVSCMYWYQQKPGSSPRVLIYDTSNLASGVPARFTGSGSGTSYSLTISRMEAEDAASYYCQQWNSYPLTFGAGTKLELK
notes: mouse IgG, kappa light chain; also called clone #5; purified antibody 5
Regarding B2, the “loss of binding vs wild type” value with hiR2-FL-L539A-T7 and with hiR2-FL-D535A-T7 was ≥ 60% each time.

B3: antibody 44 (antibody, V domains shown)
VH: QVTLKESGPGILQPSQTLSLTCSFSGFSLSTFGMGVGWIRQPSEKGLEWLAHIWWDDDKYYNPALKSRLTISKDTSKNQIFLKITNVDTAETATYYCSRIGNYGSNYWYFDVWGTGTTVTVSS
VL: QIVLTQSPAVMSASPGEKVTMTCTASSSVYYMYWYQQTPGSSPRLLIYDTSNLASGVPVRFSGSGSGTSYSLTISRMEAEDAATYYCQQWNTYPLTFGAGTKLELK
notes: mouse IgG, kappa light chain; also called clone #44; purified antibody 44
In the case of B3, the results for the “loss of binding vs wild type” value with hiR2-FL-L539A-T7 and with hiR2-FL-D535A-T7 were ≥ 60% and ≥ 30%, respectively.

B4: antibody 43 (antibody, V domains shown)
VH: QVALKESGPGILQPSQTLSLTCSFSGFSLSTFGMGVGWIRQSSGKGLEWLANIWWDDDKYYNPALKSRLTISKDASKNQAFLKIANVDTADTATYYCARIGNYGSNYWYFDVWGTGTTVTVSS
VL: QIVLTQSPAIMSASPGERVTMTCSANSRISYMYWYQQKPGSSPRLLIYDTSNLASGVPVRFSGSGSGTSYSLTISRMEAEDAATYNCQQWSSYPLTFGAGTKLELK
notes: mouse IgG, kappa light chain; also called clone #43; purified antibody 43
For the molecule B4, the “loss of binding vs wild type” value with hiR2-FL-L539A-T7 is ≥ 95%.

B5: antibody 42 (antibody, V domains shown)
VH: QVTLKESGPGILQPSQTLSLTCSLSGFSLSTFGRGVGWIRQPSGKGLEWLAHIWWDDEKYYNPALKSRLTISKDTSKNQVFLRIANVDTADTATYYCARIQNYGSNYWYFDVWGTGTTVTVSS
VL: LIVLTQSPAIMSASPGEKVTMTCGATSRISYMFWYQQKPGSSPRVLIYDTSNLASGVPVRFSGSGSGTSYSLTISRVEAEDVATYYCQQWNSYPLTFGAGTKLELK
notes: mouse IgG, kappa light chain; also called clone #42; purified antibody 42
Take B5: the “loss of binding vs wild type” value was ≥ 60% in the assay with hiR2-FL-L539A-T7 and ≥ 30% with hiR2-FL-D535A-T7.

B6: antibody 22 (antibody, V domains shown)
VH: QVTLKESGPGILQPSQTLSLTCSFSGFSLSTFGMGVGWIRQPSGKGLEWLAHIWWDDEKYYNSALKSRLTISKATSKNQVFLKIANVDTADTATYYCARISNYGSNYWYFNVWGTGTTVTVSS
VL: QVVLTQSPALMSASPGEKVTMTCSAGSSVSYMYWYQQKPGSSPRVLIYDTSNLASGVPARFTGSGSGTSYSLTISRMEAEDAATYYCQQWNSYPLTFGAGTKLELK
notes: mouse IgG, kappa light chain; also called clone #22; purified antibody 22
With B6, the figures for the “loss of binding vs wild type” value with hiR2-FL-L539A-T7 and with hiR2-FL-D535A-T7 were ≥ 95% and ≥ 30%, respectively.

B7: antibody 34 (antibody, V domains shown)
VH: QVTLKESGPGILQPSQTLSLTCSFSGFSLSTFSLGVGWIRQSSGKGLEWLAHIWWDDEKYYNPALKSRLTISKDTSKNQVFLKIANVDAADTATYYCARAYYSKSYYALDYWGQGTSVTVSS
VL: DIQMTQSPSSLSASLGERVSLTCRASQEISGYLSWLQQKPDGTIKRLIYAASTLDSGVPKRFSGSRSGSDYSLAISSLESEDFADYYCLQYANFPFTFGSGTKLEIK
notes: mouse IgG, kappa light chain; also called clone #34; purified antibody 34
B7: the entries for the “loss of binding vs wild type” value in the assay with hiR2-FL-L539A-T7 and with hiR2-FL-D535A-T7 were ≥ 60% and ≥ 30%, respectively.

B8: antibody 3 (antibody, V domains shown)
VH: QVTLKESGPGILQPSQTLSLTCSFSGFSLTTFAMGIGWVRQPSGKGLEWLAHIWWDGEKYNNPVLKSRLTISKDTSKNQVFLRIANVDTPDTATYYCARISSIYYIIDNWGQGTSVTVSS
VL: DIVLTQSPATLSVTPGHSVSLSCRASQSISNNLHWYQKKSHESPRLLIKYVSQSISGIPSRFSGSGSGTDFTLSINSVETEDFGMYFCQQSYNWPLTFGAGTKLELK
notes: mouse IgG, kappa light chain; also called clone #3; purified antibody 3
On to B8, for which the entries for the “loss of binding vs wild type” value with hiR2-FL-L539A-T7 and with hiR2-FL-D535A-T7 were ≥ 30% and ≥ 60%, respectively.
